Consider one molecule from article PMC8411024 (Biomolecules & Therapeutics, 2021).

This assay deals with T1, Human LRP6 E1E2 (21-630) (human, UniProt O75581 21-630).
T1 sequence (looked up): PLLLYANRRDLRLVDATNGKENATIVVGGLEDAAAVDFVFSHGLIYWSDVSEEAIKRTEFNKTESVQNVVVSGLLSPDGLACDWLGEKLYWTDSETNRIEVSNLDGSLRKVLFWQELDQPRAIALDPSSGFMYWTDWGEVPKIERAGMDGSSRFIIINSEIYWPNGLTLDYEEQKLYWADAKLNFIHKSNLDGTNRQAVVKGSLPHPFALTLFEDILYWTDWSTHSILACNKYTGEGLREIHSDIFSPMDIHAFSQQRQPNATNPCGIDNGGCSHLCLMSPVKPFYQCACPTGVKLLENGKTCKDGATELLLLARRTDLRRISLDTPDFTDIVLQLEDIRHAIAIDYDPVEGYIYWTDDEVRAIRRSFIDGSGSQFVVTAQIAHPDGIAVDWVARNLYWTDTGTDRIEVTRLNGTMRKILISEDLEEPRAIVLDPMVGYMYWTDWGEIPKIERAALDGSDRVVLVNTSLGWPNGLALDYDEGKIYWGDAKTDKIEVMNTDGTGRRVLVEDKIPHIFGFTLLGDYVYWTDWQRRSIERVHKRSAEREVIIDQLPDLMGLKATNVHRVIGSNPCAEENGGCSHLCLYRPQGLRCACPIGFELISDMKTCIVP
The experiment in a line: HDX-MS.

B1: SOSTΔ (24-169) (domain or fragment, human, UniProt Q9BQB4 24-169, looked up)
chain: QGWQAFKNDATEIIPELGEYPEPPPELENNKTMNRAENGGRPPHHPFETKDVSEYSCRELHFTRYVTDGPCRSAKPVTELVCSGQCGPARLLPNAIGRGKWWRPSGPDFRCIPDRYRAQRVQLLCPGGEAPRARKVRLVASCKCKR
As for B1, the binding result is “binds”.
